Our source for the EC50 values is patent US20180142032A1 (Sanofi, published 2018).

This assay deals with T1, LAMP1::histag (human, UniProt P11279 29-382).
T1 construct: extracellular domain without signal peptide, C-terminal 6 His tag, made in HEK293 cells; also called recombinant human LAMP1; human LAMP1 (29-382)
T1 sequence: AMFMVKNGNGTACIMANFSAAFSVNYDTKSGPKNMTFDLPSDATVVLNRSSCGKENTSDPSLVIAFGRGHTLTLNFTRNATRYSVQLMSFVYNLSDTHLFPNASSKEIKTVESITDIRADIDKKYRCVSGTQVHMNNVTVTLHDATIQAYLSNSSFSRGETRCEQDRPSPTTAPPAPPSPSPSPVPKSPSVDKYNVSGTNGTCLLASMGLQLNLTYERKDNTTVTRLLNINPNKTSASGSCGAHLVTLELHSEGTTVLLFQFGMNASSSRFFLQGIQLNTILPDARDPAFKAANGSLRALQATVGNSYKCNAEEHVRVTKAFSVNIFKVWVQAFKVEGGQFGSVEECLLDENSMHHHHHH
Briefly: ELISA on secreted LAMP1::histag.

B1: MAb1 (antibody, mouse IgG2a, kappa)
heavy: QVQLQQSGAELVKPGASVKMSCKASGYIFTNYNIHWVKKSPGQGLEWIGAIYPGNGDAPYSQKFKDKATLTADKSSSTTYMQLSRLTSEDSAVYYCVRANWDVAFAYWGQGTLVSVSAAKTTAPSVYPLAPVCGDTTGSSVTLGCLVKGYFPEPVTLTWNSGSLSSGVHTFPAVLQSDLYTLSSSVTVTSSTWPSQSITCNVAHPASSTKVDKKIEPRGPTIKPCPPCKCPAPNLLGGPSVFIFPPKIKDVLMISLSPIVTCVVVDVSEDDPDVQISWFVNNVEVHTAQTQTHREDYNSTLRVVSALPIQHQDWMSGKEFKCKVNNKDLPAPIERTISKPKGSVRAPQVYVLPPPEEEMTKKQVTLTCMVTDFMPEDIYVEWTNNGKTELNYKNTEPVLDSDGSYFMYSKLRVEKKNWVERNSYSCSVVHEGLHNHHTTKSFSRTPGK
light: DIQMTQSPPSLSASLGGKVTITCKASQDIDRYMAWYQDKPGKGPRLLIHDTSTLQPGIPSRFSGSGSGRDYSFSISNLEPEDIATYYCLQYDNLWTFGGGTKLEIKRADAAPTVSIFPPSSEQLTSGGASVVCFLNNFYPKDINVKWKIDGSERQNGVLNSWTDQDSKDSTYSMSSTLTLTKDEYERHNSYTCEATHKTSTSPIVKSFNRNEC
notes: murine monoclonal IgG, kappa, from hybridoma; also called murine MAb1
In turn, B1 displayed an EC50 of 0.16 nM.
